One data set relates to eosinophilic esophagitis. As to conditions: cited from earlier work.
In data set [1] the test system is EE transcriptome. Briefly: EE transcriptome of EE patients after fluticasone propionate treatment. As to conditions: EE patients treated; FIG. 6. The class given is in vivo, human. As to the method: The data were analyzed by cluster analysis and ordered (standard correlation (A) and distance (B)) using Genespring software. […] Each column represented a separate individual and each line a gene. RNA from each patient was subjected to chip analysis using Affymetrix Human Genome U133 GeneChip plus 2.
In one embodiment, the EE transcriptome was used to evaluate EE patients pre- and post-treatment regimens.
This group of 13 non-responsive genes is SEQ ID NOS. 6, 35, 43, 61, 129, 1358, 1441, 1515, 1538, 1584, 1615, 1618, and 1620. Evaluation of these genes provides a marker of past, present, and/or future active disease, especially in the absence of overt disease. […] Thus, these 13 genes can be used to evaluate a patients propensity to EE, particularly in the absence of clinical or physical symptoms of EE or microscopic findings typical of EE. […] These 13 genes can be used to evaluate EE in an asymptomatic population or when past EE is suspected in a non-active EE individual at the time of endoscopy.

The test system of data set [2] is esophageal epithelial cells. In words: Transcriptome of esophageal epithelial cells stimulated with IL-13, compared to the EE transcriptome. The class given is cell-based. The source says: In one embodiment, the EE transcriptome was compared to transcriptomes in cell/tissues that had been treated with one or more compounds potentially involved with and/or efficacious against EE. By comparing the EE transcriptome to the transcriptome of, e.g., a simple in vitro or ex vivo model of a particular compound, one can assess the percentage of genes that are dysregulated in EE due to that particular compound.
For example, in ex vivo or in vitro models, a compound was used to stimulate an esophageal cell type.

The test system of data set [3] is EE transcriptome. Briefly: Genome-wide microarray transcript profiling of esophageal biopsies, EE patients vs normal individuals (EE transcriptome). Conditions: transcript level in esophageal biopsies of EE patients (n=76) compared to normal individuals (n=13); Affymetrix Human Genome U133 plus 2; p<0.01. Put shortly:
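Distal esophageal biopsies from EE patients (n=76; >24 eosinophils/hpf, basal hyperplasia) and normal controls (n=13; 0 eosinophils/hpf) profiled on Affymetrix Human Genome U133 plus 2 chips. Expression by absolute call and average difference, global scaling; transcriptome genes defined as p<0.01 (Welch t-test) and ≥1.5-fold change.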

Consider `CCC(=O)O[C@]1(C(=O)SCF)[C@H](C)C[C@H]2[C@@H]3C[C@H](F)C4=CC(=O)C=C[C@]4(C)[C@@]3(F)[C@@H](O)C[C@@]21C` [fluticasone propionate], for which the “effect on EE disease” value in the data set on eosinophilic esophagitis (Gastroenterology 131 (2006) 1381) is given as “induce EE disease remission”. Further, in the data set with eosinophilic esophagitis (J. Allergy Clin. Immunol. 120 (2007) 1292, U.S. Ser. No. 61/118,981), the “effect on EE gene dysregulation” value is given as “reverse EE gene dysregulation”. In the data set on EE transcriptome [1], the “number of EE transcriptome genes normalized by treatment” value was found to be 1605 genes/1620 genes, the “number of EE transcriptome genes resistant to treatment” value was determined as 13 genes/1620 genes and the “share of the EE transcriptome resistant to treatment” value is “less than 1%”. Regarding interleukin 13 [IL-13], the “share of the genes of the EE transcriptome potentially due to stimulation of esophageal epithelial cells” value in data set [2] is given as 20%.

B1: SEQ_ID_#245 (nucleic acid, listed as Homo sapiens)
DNA: TTTTTTTTTTGTATTTTTTGCAGGGACAGGGTTTCACCATATTGCTCAGGGTAGTCTCGAACTCCTGAGCTCAAGGGATCCACCCTGCCTTGGCCTCCCAGTGTGCTGGGATTTCACACGTGAGCCACCGAGCCCAGCTACATTCTTATTTCCTAAACTTTACAAGTTCACACTCTTCCCTTTAAACAAATGTGCCCCCTCTGGCGGTGTCATTTGAGTCCCGGTGTATGTCATTAAGCCTCTTAACCTCAACCACTACTTCCCACTGAAATAACTCTATTTTCTTTTTTTCTAATGAAAAAGTAAGACATGTTCTATGTAAAAATTAAAATATGGTGAGCACTTACCACTTACTATGAGCCAGGCATTGAACTAAGTATTTTTTAATCTTATTTTCATCCTCGTGATATGAGGTCAGTGCTTTGATGAGTTCCATTTTACGTAAGAAAGTAGTTAAG
For the molecule B1, the “Fold Change” value in the data set on EE transcriptome [3] is 2.303.

B2: SEQ_ID_#185 (nucleic acid, listed as Homo sapiens)
DNA: AATAATTAATGCAATTTAATGACAATAAATAAACTTCAAAGTCCCGCCAAAACCAGCAGAACCTCATCAAAGCAAAAGAAACAAGCTTCTTTCCAGCTCAGAGGTGAAGCGCTGCAGATGGCCAGTGTTTCATCTCGAGGGGAGGGTTGGGAAAGGCTGTGGAATGAGGG
B2: in the data set with EE transcriptome [3], the “Fold Change” value is listed as 2.62.

B3: SEQ_ID_#243 (nucleic acid, listed as Homo sapiens)
DNA: GGAAAGAGAGGAGAGGGGAGGGGAAGAGAGGGGAGGGAAGGGCAGGGCAGGGCAGAGCCCGGCAGGCAGCCCTCAGAGGAGGGGCGCAGGCCCCAGCCCAAGGCCTCCCGCGCCTGCCCAGGTCCCGGCCTCCATCGTCCAGGGCTCTGGGGCTCCCAGGGGAGACACCCACGCTCGGCCAAGCCCAGGGTTCCAGAAGCCCAGGGGTGGCGGCAGCCGGGCTCAGCCTATGGCCAGGCTCGCATTCAGACATGCGCCAGCCTCGGTCGGCTCTCTCCGGGAGACACTAAGATCTCCTCACTGACTTTGGTGTTCCTTGGTCTCACCAGCGCGTCCTAGCTGTGCCGAGCTCACACCCACCCTGTTTGGTGTAAGCCACAGGTCCACAACGTTCATCAGCTCTGGAAATCCCTCAACAATTGTGTCCAGTTTCACCACGAATTCCTTCTCCATATCCTCACCATTTTCTTTTACCCCCTCATCAAATTACTCCCTTCCGTCTAATCTGCTGATTAACTCATTCATTTTATCTTAAATTATTATG
On to B3, for which, in the data set on EE transcriptome [3], the “Fold Change” value was determined as 2.308.

B4: SEQ_ID_#186 (nucleic acid, listed as Homo sapiens)
DNA: CACCGGCTACAAGGCTAGACCGGGGGCTCGCATATCTCCACTTGCAGCTGCCACTGCCATTAGAAGAACTTGCTCAGCCAGCTCCTGGGCCCCAGGAAAAGGACAAGTGTCACCCAGAACAGAGCCACCTCCAGCTGCACTCAGCTCCAGAAGCTGGCCCAGCCGGTCCAGTACACCTTTTAAATAATGTCCTCTACGTGCCGGTGTGGAAGTAGCCCGGATGCAATTGAATGAACAACAGACGGTGCTTTCCAGGACGGCGCTGTGCTTTCCAGGATGGTGCTGTGCTTTCATTCATTTGGGTAGCTCCTCTGTGAGCCTCCCAGCGCCGACTGCAGAGCCCCCACTCTCCAGCCTGCAAGACCCCGAAATTCAAGCCACACAAAGAAAGGAGGAGGGGGCCGTGGCATTTACTGAACCTTATAAAACTGTCAGCAAAACAGCCCTTAGGCTTGGACTCCCTGCTAGCCGGGTTTTACGGTGCTGAAGTCAGCATCTTGATTCAGCTGCATAAATAATCTCCTGCAGTCCTGCAAGGCCTGGGGTAGGAGAGGGTATGGGGACCAGGGCACTCTGTAAGGGCTGGATAGGAACCCCAGGGAATAAGACAGACCAATGCGGGACTTCAGACTCCACTGCAGCGGGATCGGG
Regarding B4, the “Fold Change” value in the data set on EE transcriptome [3] worked out at 2.617.

B5: SEQ_ID_#165 (nucleic acid, listed as Homo sapiens)
DNA: CCAAAAAGTCAGTTGATATGACACAGTCACAGACAGAACAGTCAGCAGCCCAAGAAAGGTCCTCACGGCTGCTGTGCTGGGTAGCACTTGCCATCCAGTTTCTAGAGTGATGAAATGCTCTGTCTGTACCGTTCAATACAGTAGGCACTGGCACTAGCCACATGTGCCAGCTAAGCACTTGAAATGTGGCCAGTGCAATAAGGAATTGAACTTTTAATTGCATTTAATAAACTGTATGTAAATAG
Turning to B5, the “Fold Change” value in the data set with EE transcriptome [3] amounted to 2.732.

B6: SEQ_ID_#52 (nucleic acid, listed as Homo sapiens)
DNA: TTTTTTTCCAAGGGGAGAATGAAGCCATTTTATTTAGGGGAATGTTAAAACAAAGCCATATACAATCTGTAACAAATACAATACAATTGTTTGTTCCCTAGTCCTGAATAATTACAGTATATACAAAATCTGTAAGGCACTGGTTCCCCCAAAAGAACAAATGAGTCTTCTTGTGAAACAGACAACGAAACCCCTATATTGCCAACTTTTCTCCAAAAAATATGGCATTGTTTTTTTGTTTTGTTTTACAAGAGGAATCACAATTGCTAAATTAAGTCACTTCTGATGCCATTTCTTTCATTTCCACTGCTATGTGTCTGGGTTTTCTAAGGCAATGTAACTACTGAACATGTTCAAGTTTAAAAAACTATACTTCTCTCAGTGCCGTTCCACCCACAAACAAAGAAGAATCAGATCA
On to B6, for which the “Fold Change” value with EE transcriptome [3] is listed as 5.183.

B7: SEQ_ID_#43 (nucleic acid, listed as Homo sapiens)
DNA: TTCACTTTTTCATTATTTTATTGTTGTTTTAGTAGCATTTTGAGGTGAATGTATGCATAATCAGTGAATTAGACAAGCATGCACATACATGATATCTGATCAAACATTTTTTTGTCTCTCATCATCCTCATAAAATTTATTCAGTGGGAGAAGCTTTTTCTTCCATCAGATACATTCCAGTTGTATGCCAACATACTCAGGTAAGAGCAACATTTTGGTCATTTTAAATAGTTTGGTAATTATGACTCCCAGTCGCCTACAATAAGAAGAAACTACAATAATTTAGTACTAAATTTTTCTTCCCTCTCCAACTGAGTCTTGTGTTGAGTTGCCTACTTGCGCTAGCACATCTTCCCTTGCTGGTTGACATTTTTGCTAAGATTTCTCCCTCTCCTTCCACCCCACCTTGGACACGGAGGTTTCTGGCCTCCCTTTCCCCAAGGTCCCCAAAAAAAGAAATCTGTCTTATGAGATAGGGCTGCCTTCACATGGTGTCAGGGTTCTCTGGATAGTAATTGTGTGTAATAAGAGAGGGAGCATTCAAGAACTCCCATAGAAATTCTCATAGCCCTGACTTCTCATCTTTAGCTTGTGTAGATTTTTTTGTATTCCAGGTGGTCATTTGTGACTCCTTCCTCATCCCACAATCTGGCTTCACCTCCCACTTCTTGATGCTGGGTTCCCTCCACCTCTTTGGACAACCTATCAGAGAGGACCTAAAGAGCCCATGCTGACTTCACTCTTGCATGTCTCACTATGGTTCATGGGAAACCACACATCCATTGCCCTGACAACACTAGACATACAGGC
For the molecule B7, in the data set with EE transcriptome [3], the “Fold Change” value is 5.944.

B8: SEQ_ID_#19 (nucleic acid, listed as Homo sapiens)
DNA: ATGGCCTGGACCCCTCTGCTCCTCATGTTCCTCTCTCATTGCTCAGGTGAGAACTGGTTTTAGGTGTCTAGGGTTAGCTCCTTAGCTTGCGTCAGCCTCTCTGGCTCAGATCCCCAAGACATGTATCTCTAGTTCCTGCCCCAGCCCCCATGAGTGTCTGTGCTTGCAGGTTCCCTCTCCCAGCCTGTGCTGACTCAGATGACCTCACTCTCTGCATCTCCGGGAGCATGAGCCAGACTTACCTGCACCCTGAGCAGTGGCTTCAGAGTTGGTAACTTTGCAATATAGTGGTCAGCTGAAGCCAGGCAGCCGTCCCAGGTGTCTCCTGAGATACTACTCAGACTCAAATATCACTCAGCACCCTGGGGTTCCCATCCACTTCTCTGGATCCAATGATACATTAGCCAATGCAGGGATTCTGTACATTCCTGGGCTGAAGCCTGAGGGTGAGGCTATTACTGTTGTACGTGTCACAGCAGCTCCAAGT
Take B8: the “Fold Change” value in the data set with EE transcriptome [3] is 10.29.
